Experimental data reported in article PMC6047533.

Assays:
[1] = target: SHH-E177A (mouse SHH with E177A, expressed from the targeted endogenous locus) (mouse); assay: SDS-resistant cross-linked form on Western blot of tissue extract
[2] = target: SHHN-E176A (N-terminal construct of human SHH with E176A, N-lipid containing, C-lipid lacking) (human); assay: cross-linking

stoichiometry N [1] | stoichiometry N [2] | Substance
2 | – | SHH-E177A (mouse SHH with E177A, expressed from the targeted endogenous locus) (natural protein)
– | 2 | SHHN-E176A (N-terminal construct of human SHH with E176A, N-lipid containing, C-lipid lacking) (domain or fragment)
